The values below come from patent US20110250668.

For this data set, the target named is CBD-cohesin from C. thermocellum displayed on the yeast cell surface (CtCBDcoh yeast), P32781.
CBD-cohesin from C. thermocellum displayed on the yeast cell surface (CtCBDcoh yeast), P32781, sequence (P32781 whole entry, looked up): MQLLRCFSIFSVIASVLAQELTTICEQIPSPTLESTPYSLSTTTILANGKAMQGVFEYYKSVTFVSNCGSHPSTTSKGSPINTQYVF

B1: Cel8A cellulase spliced to the Cel48S dockerin with aspartic acid substituted for the No. 18 and No. 50 asparagines, His-tagged (CtCBDcohCel8A48SdocN-D yeast) (protein)
chain: AGVPFNTKYPYGPTSIADNQSEVTAMLKAEWEDWKSKRITSNGAGGYKRVQRDASTNYDTVSEGMGYGLLLAVCFNEQALFDDLYRYVKSHFNGNGLMHWHIDANNNVTSHDGGDGAATDADEDIALALIFADKLWGSSGAINYGQEARTLINNLYNHCVEHGSYVLKPGDRWGGSSVTNPSYFAPAWYKVYAQYTGDTRWNQVADKCYQIVEEVKKYNNGTGLVPDWCTASGTPASGQSYDYKYDATRYGWRTAVDYSWFGDQRAKANCDMLTKFFARDGAKGIVDGYTIQGSKISNNHNASFIGPVAAASMTGYDLNFAKELYRETVAVKDSEYYGYYGNSLRLLTLLYITGNFPNPLSDLSGQPTPPSNPTPSLPPQVVYGPSSGTPSTKLYGDVNDDGKVDSTDAVALKRYVLRSGISINTDNADLNEDGRVDSTDLGILKRYILKEIDTLPYKN
Consider B1, for which the CMC decomposition activity result is “CMC decomposition activity was increased by amino acid substitution (FIG. 11), indicating improved saccharification ability of the yeast”.
